In patent US7807620 (TRUSTEES OF COLUMBIA UNIVERSITY IN THE CITY OF NEW YORK, dated 2010):

Molecular target: T1, recombinant native hFSH receptor (human, UniProt P23945 18-695)
T1 construct: whole, on cells
T1 sequence (looked up): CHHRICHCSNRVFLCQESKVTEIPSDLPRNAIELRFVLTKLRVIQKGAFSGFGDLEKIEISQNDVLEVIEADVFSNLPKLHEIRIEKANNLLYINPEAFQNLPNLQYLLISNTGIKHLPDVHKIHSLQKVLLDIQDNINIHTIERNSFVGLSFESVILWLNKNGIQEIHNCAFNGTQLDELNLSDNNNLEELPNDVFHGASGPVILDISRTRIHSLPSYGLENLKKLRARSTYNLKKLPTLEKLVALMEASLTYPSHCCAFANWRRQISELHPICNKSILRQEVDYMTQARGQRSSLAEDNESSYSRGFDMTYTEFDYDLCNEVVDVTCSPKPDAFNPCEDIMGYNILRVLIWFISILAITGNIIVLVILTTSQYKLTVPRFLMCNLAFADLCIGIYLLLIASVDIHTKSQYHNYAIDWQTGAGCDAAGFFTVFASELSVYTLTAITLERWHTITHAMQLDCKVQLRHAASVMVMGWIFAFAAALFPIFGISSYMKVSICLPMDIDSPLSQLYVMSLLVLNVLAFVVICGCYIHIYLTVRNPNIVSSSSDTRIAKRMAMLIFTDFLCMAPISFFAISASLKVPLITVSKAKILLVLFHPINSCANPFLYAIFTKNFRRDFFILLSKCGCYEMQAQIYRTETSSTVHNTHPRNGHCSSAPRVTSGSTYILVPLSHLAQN
Experiment: conclusion drawn from the cAMP bioassay on Y-1 cells expressing the FSH receptor; no direct binding assay described
Procedure: Bioactivity of the hFSH analogues was evaluated using Y-1 cells transfected with the FSH receptor. Y-1 cell cultures were mixed with the fusion protein and native pituitary hFSH (control) at varying concentrations and media was assayed for cAMP activity as described in Bouloux et al, 2001.
Figure 8: FIG. 8: In vitro bioassay of hormone activity. cAMP concentration (fmol/ml) was quantitated in Y1 cells expressing the FSH receptor after treatment with the indicated amount of either pituitary FSH (PFSH) or the FSH analogue, β-hFSH-CTP-α-hFSH (rFSH-CTP).
The bioactivity of the β-hFSH-CTP-α analogue was first assessed by an assay of hFSH receptor activity. In this assay, a recombinant native hFSH receptor is expressed in a suitable host cell and cAMP induction is measured following incubation with hormone (Lindau-Shepard et al, 2001).

binding result: binds
B1: β-hFSH-CTP-α-hFSH (ligand)
chain: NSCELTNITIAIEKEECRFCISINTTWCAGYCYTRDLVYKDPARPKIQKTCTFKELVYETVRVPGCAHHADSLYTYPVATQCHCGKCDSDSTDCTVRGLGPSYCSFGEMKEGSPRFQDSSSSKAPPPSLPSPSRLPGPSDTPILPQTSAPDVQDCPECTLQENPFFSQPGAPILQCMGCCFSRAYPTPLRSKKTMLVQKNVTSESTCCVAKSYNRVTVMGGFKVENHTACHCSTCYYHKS
notes: Secreted from CHO-K1 cells and purified on an A201 column; also called β-hFSH-CTP-α analogue; β-hFSH-CTP-α fusion protein
